The record followed here is article PMC3834811.

The series concerns the target AtWRKY50 DBD_K26Q (Arabidopsis thaliana, UniProt Q8VWQ5 =M+99-173, K123Q;internal_change). Briefly: DPI-ELISA. In general terms: An ELISA detects its analyte on a solid surface through an enzyme-linked reagent.

B1: W2 (dsDNA)
DNA 1: AAATTATTCAGCCATCAAAAGTTGACCAATAAT
DNA 2: ATTATTGGTCAACTTTTGATGGCTGAATAATTT
Regarding B1, the binding result is listed as “binds”.
